Measurements published in patent US20220204629A1.

B1: G9.2-17 human IgG4 (antibody, V domains shown)
VH: EVQLVESGGGLVQPGGSLRLSCAASGFTVSSSSIHWVRQAPGKGLEWVAYISSSSGYTYYADSVKGRFTISADTSKNTAYLQMNSLRAEDTAVYYCARYWSYPSWWPYRGMDYWGQGTLVTVSS
VL: DIQMTQSPSSLSASVGDRVTITCRASQSVSSAVAWYQQKPGKAPKLLIYSASSLYSGVPSRFSGSRSGTDFTLTISSLQPEDFATYYCQQSSTDPITFGQGTKVEIKR
B2: G9.2-17 mIgG1 (antibody, V domains shown)
VH: B1 VH
VL: B1 VL

Columns and labels:
[1] = biological target: mouse Galectin-9 CRD2 (residues 226-353) (mouse) (UniProt O08573); experiment: bead based binding, mouse CRD2
[2] = biological target: mouse Galectin-9 CRD2 (residues 226-353) (mouse) (UniProt O08573); experiment: biolayer interferometry, G9.2-17 captured on anti-Fab probes, mouse gal-9 CRD2 in solution, global fit
[3] = biological target: galectin-9 on the cell surface of the CRL-2134 cell line (human) (UniProt O00182); experiment: flow cytometry, saturation curve on CRL-2134 cells
[4] = biological target: recombinant, full length human Galectin-9 (R&D Systems 2045-GA) (human) (UniProt O00182); experiment: cell-based or functional assay
Chain of recombinant, full length human Galectin-9 (R&D Systems 2045-GA) (human) (O00182 other isoform, or with tags, fused parts or gaps limits assumed): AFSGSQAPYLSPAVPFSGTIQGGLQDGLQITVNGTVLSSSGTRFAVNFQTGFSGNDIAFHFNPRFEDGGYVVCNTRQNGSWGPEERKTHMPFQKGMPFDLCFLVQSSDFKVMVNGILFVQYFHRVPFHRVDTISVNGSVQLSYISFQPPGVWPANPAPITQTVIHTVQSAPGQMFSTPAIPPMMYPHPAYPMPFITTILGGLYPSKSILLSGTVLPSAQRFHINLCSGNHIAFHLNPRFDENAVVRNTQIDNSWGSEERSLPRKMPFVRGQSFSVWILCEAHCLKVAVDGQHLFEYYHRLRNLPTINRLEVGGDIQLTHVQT

[5] = biological target: mouse Galectin-9 CRD2 (residues 226-353) (mouse) (UniProt O08573); experiment: SPR, One Step method, Pioneer; mouse CRD2
[6] = biological target: galectin-9 on the cell surface of the CRL-2134 cell line (human) (UniProt O00182); experiment: cell based binding, flow cytometry on CRL-2134 cells

Row | Binder | Kd [1] [nM] | Kd [2] [nM] | Kd [3] [nM] | MOLM-13 T cell apoptosis assay [4] [%] | Kd [5] [nM] | Kd [6] [nM]
1 | B1 | 0.3 | 1.6 | 0.41 | 10 | 1.8 | –
2 | B2 | 0.3 | – | 2.9 | – | 3.05 | 2.91
